Results reported in article PMC11577422.
Read-outs that look alike come from different tables or passages of the source.

Substrate: Cc1ccco1
Type: in vitro ADME, human

B1: CYP 2E1 (Homo sapiens) (protein)
chain: MSALGVTVALLVWAAFLLLVSMWRQVHSSWNLPPGPFPLPIIGNLFQLELKNIPKSFTRLAQRFGPVFTLYVGSQRMVVMHGYKAVKEALLDYKDEFSGRGDLPAFHAHRDRGIIFNNGPTWKDIRRFSLTTLRNYGMGKQGNESRIQREAHFLLEALRKTQGQPFDPTFLIGCAPCNVIADILFRKHFDYNDEKFLRLMYLFNENFHLLSTPWLQLYNNFPSFLHYLPGSHRKVIKNVAEVKEYVSERVKEHHQSLDPNCPRDLTDCLLVEMEKEKHSAERLYTMDGITVTVADLFFAGTETTSTTLRYGLLILMKYPEIEEKLHEEIDRVIGPSRIPAIKDRQEMPYMDAVVHEIQRFITLVPSNLPHEATRDTIFRGYLIPKGTVVVPTLDSVLYDNQEFPDPEKFKPEHFLNENGKFKYSDYFKPFSTGKRVCAGEGLARMELFLLLCAILQHFNLKPLVDPKDIDLSPIHIGFGCIPPRYKLCVIPRS
- Km (other: CYP 2E1; I) high substrate concentrations): I) 1966.76; II) 23.29 μM
- Km (other: CYP 2E1; II) low substrate concentrations): 23.3 µM
